Tests used:
FOXP3-ΔN [1] = molecular target: T1, FOXP3-ΔN (human, UniProt Q9BZS1 182-431); assay: EMSA; 12 mM HEPES pH 7.5, 100 mM NaCl, 1 mM DTT, 1 mM EDTA, 12% glycerol, 20 µg/ml poly(dI)-poly(dC), room temperature 20 min; details: protein: ivt; chain copies: 2; label: 32P 5' end; blunt
FOXP3 full length = FOXP3 full length (human, UniProt Q9BZS1 1-431); assay: as above; details: protein: ivt; chain copies: 2; label: 32P 5' end; blunt
FOXP3-ΔN delE251 = FOXP3-ΔN delE251 (human, UniProt Q9BZS1 182-431, del251-251); assay: as above; details: protein: ivt; chain copies: 2; label: 32P 5' end; blunt
FOXP3-ΔN delK250 = FOXP3-ΔN delK250 (human, UniProt Q9BZS1 182-431, del250-250); assay: as above; details: protein: ivt; chain copies: 2; label: 32P 5' end; blunt
FOXP3-ΔN ΔFKH = FOXP3-ΔN ΔFKH (human, UniProt Q9BZS1 182-336); assay: as above; details: protein: ivt; label: 32P 5' end; blunt
FOXP3-ΔN C204S = FOXP3-ΔN C204S (human, UniProt Q9BZS1 182-431, C204S); assay: EMSA; not influenced by mutation; 12 mM HEPES pH 7.5, 100 mM NaCl, 1 mM DTT, 1 mM EDTA, 12% glycerol, 20 µg/ml poly(dI)-poly(dC), room temperature 20 min; details: protein: ivt; chain copies: 2; label: 32P 5' end; blunt
FOXP3-ΔN [2] = molecular target: T1, FOXP3-ΔN; assay: EMSA; binding more than doubled; 12 mM HEPES pH 7.5, 100 mM NaCl, 1 mM DTT, 1 mM EDTA, 12% glycerol, 20 µg/ml poly(dI)-poly(dC), room temperature 20 min; details: protein: ivt; chain copies: 2; label: 32P 5' end; blunt
Foxp1A full length = Foxp1A full length (mouse, UniProt P58462 1-705); assay: EMSA; 12 mM HEPES pH 7.5, 100 mM NaCl, 1 mM DTT, 1 mM EDTA, 12% glycerol, 20 µg/ml poly(dI)-poly(dC), room temperature 20 min; details: protein: ivt; tags: HA; chain copies: 2; label: 32P 5' end; blunt
FOXP3 FKH domain = molecular target: T2, FOXP3 FKH domain (UniProt Q9BZS1 337-423); assay: as above; details: chain copies: 2; label: 32P 5' end; blunt
T2 sequence: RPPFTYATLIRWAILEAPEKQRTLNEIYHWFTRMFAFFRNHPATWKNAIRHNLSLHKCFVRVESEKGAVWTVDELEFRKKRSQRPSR

FOXP3-ΔN [3] = molecular target: T1, FOXP3-ΔN; assay: as above; details: protein: ivt; chain copies: 2; label: 32P 5' end; blunt; remark: listed apart in the source
FOXP3-ΔN [4] = molecular target: T1, FOXP3-ΔN; assay: as above; details: protein: ivt; chain copies: 2; label: 32P 5' end; blunt; remark: listed apart in the source

T1 sequence (Q9BZS1 182-431, stated change not applied): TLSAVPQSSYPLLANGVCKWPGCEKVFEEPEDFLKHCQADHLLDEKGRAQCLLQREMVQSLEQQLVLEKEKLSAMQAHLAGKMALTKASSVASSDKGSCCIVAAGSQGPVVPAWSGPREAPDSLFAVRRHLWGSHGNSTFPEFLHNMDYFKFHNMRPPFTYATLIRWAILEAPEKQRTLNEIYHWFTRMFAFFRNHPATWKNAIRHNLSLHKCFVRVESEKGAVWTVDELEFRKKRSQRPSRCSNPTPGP
FOXP3 full length, sequence (Q9BZS1 whole entry): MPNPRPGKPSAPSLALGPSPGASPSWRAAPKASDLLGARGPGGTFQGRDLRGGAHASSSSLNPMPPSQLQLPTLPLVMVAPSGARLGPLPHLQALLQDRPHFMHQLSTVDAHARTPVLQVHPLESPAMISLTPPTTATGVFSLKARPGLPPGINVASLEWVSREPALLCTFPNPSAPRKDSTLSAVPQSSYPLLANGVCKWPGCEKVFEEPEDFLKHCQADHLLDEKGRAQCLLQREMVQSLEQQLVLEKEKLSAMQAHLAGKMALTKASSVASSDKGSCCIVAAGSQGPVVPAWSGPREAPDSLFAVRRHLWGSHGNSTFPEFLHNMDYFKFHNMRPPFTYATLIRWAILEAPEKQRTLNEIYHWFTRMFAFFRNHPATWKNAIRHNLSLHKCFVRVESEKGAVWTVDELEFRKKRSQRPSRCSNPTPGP
FOXP3-ΔN delE251, sequence (Q9BZS1 other isoform, or with tags, fused parts or gaps del251-251 | mutant): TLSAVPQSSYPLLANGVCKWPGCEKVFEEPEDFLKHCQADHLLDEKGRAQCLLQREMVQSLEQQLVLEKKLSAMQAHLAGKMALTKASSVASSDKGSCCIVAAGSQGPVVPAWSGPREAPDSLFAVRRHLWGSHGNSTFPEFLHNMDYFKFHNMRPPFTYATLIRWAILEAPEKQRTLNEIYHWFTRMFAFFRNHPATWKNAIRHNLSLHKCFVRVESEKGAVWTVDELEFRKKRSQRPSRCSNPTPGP
FOXP3-ΔN delK250, sequence (Q9BZS1 other isoform, or with tags, fused parts or gaps del250-250 | mutant): as the sequence (Q9BZS1 other isoform, or with tags, fused parts or gaps del251-251 | mutant) above, with K69E counted along it
FOXP3-ΔN ΔFKH, sequence (Q9BZS1 182-336, stated change not applied): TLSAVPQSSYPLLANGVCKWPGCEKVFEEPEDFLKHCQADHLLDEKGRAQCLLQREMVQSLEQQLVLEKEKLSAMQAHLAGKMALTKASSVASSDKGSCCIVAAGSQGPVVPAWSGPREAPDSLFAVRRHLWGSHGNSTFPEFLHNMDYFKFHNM
FOXP3-ΔN C204S, sequence (Q9BZS1 182-431 C204S): as the sequence (Q9BZS1 182-431, stated change not applied) above, with C23S counted along it
Foxp1A full length, sequence (P58462 whole entry, the tested form may be a part): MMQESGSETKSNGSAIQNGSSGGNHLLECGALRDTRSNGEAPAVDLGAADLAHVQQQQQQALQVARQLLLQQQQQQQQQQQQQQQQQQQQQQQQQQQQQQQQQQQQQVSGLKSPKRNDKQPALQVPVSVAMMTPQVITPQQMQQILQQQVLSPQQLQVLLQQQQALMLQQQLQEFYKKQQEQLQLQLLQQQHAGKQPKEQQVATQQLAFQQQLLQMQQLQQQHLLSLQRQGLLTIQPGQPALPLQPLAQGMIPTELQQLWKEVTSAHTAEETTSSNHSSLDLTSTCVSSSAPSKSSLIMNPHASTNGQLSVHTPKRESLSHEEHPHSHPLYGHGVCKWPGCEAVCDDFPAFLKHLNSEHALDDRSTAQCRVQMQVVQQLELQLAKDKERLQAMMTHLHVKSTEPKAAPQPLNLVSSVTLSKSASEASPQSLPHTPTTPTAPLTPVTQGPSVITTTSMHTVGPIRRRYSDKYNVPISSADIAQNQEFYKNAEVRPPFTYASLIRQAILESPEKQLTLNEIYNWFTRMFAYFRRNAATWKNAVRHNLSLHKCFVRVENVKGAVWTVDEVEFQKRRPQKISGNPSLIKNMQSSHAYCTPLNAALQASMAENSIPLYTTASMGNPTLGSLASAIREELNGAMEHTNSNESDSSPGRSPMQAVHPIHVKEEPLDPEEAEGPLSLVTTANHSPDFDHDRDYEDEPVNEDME

B1: A' (25 bp), 10-bp spacing (dsDNA)
DNA 1: CAAGGTAAACAAGAGTAAACAAGTC
DNA 2: GACTTGTTTACTCTTGTTTACCTTG
binding signal (FOXP3-ΔN [1]): ~3 fold versus 14-bp spacing

B2: A' (A1-A1) (dsDNA)
DNA 1: CAAGGTAAACAAGACAACGTAAACAA
DNA 2: TTGTTTACGTTGTCTTGTTTACCTTG
binding result (FOXP3 full length): no binding
binding result (FOXP3-ΔN delE251): no binding
binding result (FOXP3-ΔN delK250): no binding
binding result (FOXP3-ΔN ΔFKH): no binding
binding result (FOXP3-ΔN C204S): binds
binding signal (FOXP3-ΔN [2]): > 2 fold versus A probe

B3: A (A1-A2) (dsDNA)
DNA 1: CAAGGTAAACAAGACAACACAAATAA
DNA 2: TTATTTGTGTTGTCTTGTTTACCTTG
binding result (Foxp1A full length): binds
binding result (FOXP3 FKH domain): no binding
binding result (FOXP3 full length): no binding

B4: A'' (A2-A2) (dsDNA)
DNA 1: CAAGACAAATAAGACAACACAAATAA
DNA 2: TTATTTGTGTTGTCTTATTTGTCTTG
binding result (FOXP3 full length): no binding
binding result (FOXP3-ΔN [3]): no binding

B5: A' (35 bp), 20-bp spacing (dsDNA)
DNA 1: CAAGGTAAACAAGACAACACGATTGTAAACAAGTC
DNA 2: GACTTGTTTACAATCGTGTTGTCTTGTTTACCTTG
binding signal (FOXP3-ΔN [1]): ~3 fold versus 14-bp spacing

B6: A' (GC) (dsDNA)
DNA 1: CAAGGCAAACAAGACAACGCAAACAA
DNA 2: TTGTTTGCGTTGTCTTGTTTGCCTTG
binding result (FOXP3-ΔN [3]): no binding

B7: A' (AT) (dsDNA)
DNA 1: CAAGATAAACAAGACAACATAAACAA
DNA 2: TTGTTTATGTTGTCTTGTTTATCTTG
binding signal (FOXP3-ΔN [4]): < 0.5 fold versus A' (GT)
